According to patent US20250179183A1:
Values joined by “and” are separate entries in the source; they are usually repeats but may differ in a detail not shown here. Identical values can stand only once.

Legend:
[1] = target: SARS-CoV-2 spike N439K variant (pseudovirus RVP-703) (SARS-CoV-2) (UniProt P0DTC2); assay: cell-based or functional assay
[2] = target: SARS-CoV-2 spike South African Δ3 B.1.351 variant (pseudovirus RVP-724) (SARS-CoV-2) (UniProt P0DTC2); assay: cell-based or functional assay

For REGN10987 (antibody), the EC50 (pM) Neutralization, pseudovirus [1] was 2260 pM and 2220 pM and the EC50 (pM) Neutralization, pseudovirus [2] was 2.48 pM and 2.37 pM.
